How the values were obtained:
EGFRvIII = EGFRvIII (UniProt P00533); assay: cell-based or functional assay
[1] = molecular target: human epidermal growth factor receptor (EGFR) (human) (UniProt P00533); assay: cell-based or functional assay

| Substance | Cytotoxicity % (LDH release), U87-EGFRvIII cells, effector to target 1:1 (EGFRvIII) | Cytotoxicity % (LDH release), U87-EGFRvIII cells, effector to target 3:1 (EGFRvIII) | Cytotoxicity against target cells % (LDH release), U87-EGFRvIII cells, effector to target 5:1, 20 h (EGFRvIII) | Cytotoxicity % (LDH release), BxPC-3 cells, effector to target 1:1 [1] | Cytotoxicity % (LDH release), BxPC-3 cells, effector to target 1:3 [1] | Cytotoxicity % (LDH release), BxPC-3 cells, effector to target 3:1 [1] | Cytotoxicity % (LDH release), CFPAC-1 cells, effector to target 3:1 [1] | Cytotoxicity % (LDH release), PANC-1 cells, effector to target 1:1 [1] | Cytotoxicity % (LDH release), PANC-1 cells, effector to target 3:1 [1] | Cytotoxicity % (LDH release), U87-EGFR cells, effector to target 1:1 [1] | Cytotoxicity % (LDH release), U87-EGFR cells, effector to target 1:3 [1] | Cytotoxicity % (LDH release), U87-EGFR cells, effector to target 3:1 [1] | Cytotoxicity % (LDH release), U87 cells, effector to target 1:1 [1] | Cytotoxicity % (LDH release), U87 cells, effector to target 1:3 [1] | Cytotoxicity % (LDH release), U87 cells, effector to target 3:1 [1] | cytotoxicity against tumor cells U87-EGFRvIII (LDH release) (EGFRvIII) | Cytotoxicity % (LDH release), CFPAC-1 cells, effector to target 1:1 [1] | Cytotoxicity % (LDH release), CFPAC-1 cells, effector to target 1:3 [1] | Cytotoxicity % (LDH release), PANC-1 cells, effector to target 1:3 [1] |
| --- | --- | --- | --- | --- | --- | --- | --- | --- | --- | --- | --- | --- | --- | --- | --- | --- | --- | --- | --- |
| chimeric antigen receptor 806-28BBZ, scFv(EGFR)-CD28-CD28-CD137-CD3 zeta (from UniProt P01732 138-182; P10747 153-220; Q07011 214-255; P20963 52-164) | 41% | 81% | 85% | 49% | 24% | 70% | 40% | 28% | 65% | 49% | 29% | 98% | -14% | -25% | -2% |  |  |  |  |
| chimeric antigen receptor 806-Z, scFv(EGFR)-CD8-CD3 zeta (from UniProt P01732 138-203; P20963 52-164) |  |  | 56% | 24% | 14% | 44% | 43% | 34% |  |  |  |  |  |  |  | 55.5% | 35% | 12% | 18% |

From patent publication US20170159025A1
